Assays:
[1] = molecular target: human PD-L1 on CHO-K1 cells (human, UniProt Q9NZQ7 19-290); experiment: FACS; MDA-MB-231 cells
[2] = molecular target: human 4-1BB on CHO-K1 cells (human, UniProt Q07011 24-255); experiment: FACS
Sequence of human 4-1BB on CHO-K1 cells (Q07011 24-255): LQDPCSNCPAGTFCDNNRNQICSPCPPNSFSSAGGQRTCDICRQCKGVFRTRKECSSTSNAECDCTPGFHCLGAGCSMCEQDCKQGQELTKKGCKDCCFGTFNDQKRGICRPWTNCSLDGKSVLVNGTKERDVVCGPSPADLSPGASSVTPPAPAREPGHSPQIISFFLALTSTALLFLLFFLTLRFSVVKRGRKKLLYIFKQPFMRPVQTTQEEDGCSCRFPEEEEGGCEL

Sequence of human PD-L1 on CHO-K1 cells (Q9NZQ7 19-290): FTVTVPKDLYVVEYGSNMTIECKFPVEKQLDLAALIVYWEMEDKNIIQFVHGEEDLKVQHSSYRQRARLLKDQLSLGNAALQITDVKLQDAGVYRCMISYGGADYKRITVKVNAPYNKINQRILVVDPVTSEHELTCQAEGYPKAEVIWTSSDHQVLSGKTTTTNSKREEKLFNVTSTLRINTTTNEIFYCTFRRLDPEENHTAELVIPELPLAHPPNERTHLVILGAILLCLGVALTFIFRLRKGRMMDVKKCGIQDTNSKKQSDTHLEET

| EC50 [1] [nM] | EC50 [2] [nM] | Binder |
| --- | --- | --- |
| 0.203 | 4.65 | PR007137 (bispecific antibody) light: DIQMTQSPSTLSASVGDRVTVTCRASQSIYIWLAWYQQKPGKAPNLLIYKASSLETGVPSRFSGSGSGTEFTLTISSLQPDDFATYYCQQYYGSSRTFGQGTKVEIKRTVAAPSVFIFPPSDEQLKSGTASVVCLLNNFYPREAKVQWKVDNALQSGNSQESVTEQDSKDSTYSLSSTLTLSKADYEKHKVYACEVTHQGLSSPVTKSFNRGEC heavy: EVQLVESGGGLVQPGGSLRLSCAASGFTFSSYWMSWVRQAPGKGLEWVANIKQEGSEKYYVDSVKGRFTISRDNAKNSLYLQMNSLRAEDTAVYYCARDRAVAGAFDIWGQGTMVTVSSASTKGPSVFPLAPSSKSTSGGTAALGCLVKDYFPEPVTVSWNSGALTSGVHTFPAVLQSSGLYSLSSVVTVPSSSLGTQTYICNVNHKPSNTKVDKKVEPKSCDKTHTCPPCPAPEAAGAPSVFLFPPKPKDTLMISRTPEVTCVVVDVSHEDPEVKFNWYVDGVEVHNAKTKPREEQYNSTYRVVSVLTVLHQDWLNGKEYKCKVSNKALPAPIEKTISKAKGQPREPQVYTLPPSREEMTKNQVSLTCLVKGFYPSDIAVEWESNGQPENNYKTTPPVLDSDGSFFLYSKLTVDKSRWQQGNVFSCSVMHEALHNHYTQKSLSLSPGGGSGGSEVQLVESGGGVVQPGRSLRLSCAASGFTFSDYYMSWFRQAPGKGLEWVSYISSSGTTIDYADSVKGRFTISRDNAKNSLYLQMNSLRAEDTAVYYCAREREEVAGTLDFDYWGQGTPVTVSS |
| 0.161 | 2.06 | PR007130 (bispecific antibody) light: DIQMTQSPSTLSASVGDRVTVTCRASQSIYIWLAWYQQKPGKAPNLLIYKASSLETGVPSRFSGSGSGTEFTLTISSLQPDDFATYYCQQYYGSSRTFGQGTKVEIKRTVAAPSVFIFPPSDEQLKSGTASVVCLLNNFYPREAKVQWKVDNALQSGNSQESVTEQDSKDSTYSLSSTLTLSKADYEKHKVYACEVTHQGLSSPVTKSFNRGEC heavy: EVQLVESGGGLVQPGGSLRLSCAASGFTFSSYWMSWVRQAPGKGLEWVANIKQEGSEKYYVDSVKGRFTISRDNAKNSLYLQMNSLRAEDTAVYYCARDRAVAGAFDIWGQGTMVTVSSASTKGPSVFPLAPSSKSTSGGTAALGCLVKDYFPEPVTVSWNSGALTSGVHTFPAVLQSSGLYSLSSVVTVPSSSLGTQTYICNVNHKPSNTKVDKKVEPKSCDKTHTCPPCPAPEAAGAPSVFLFPPKPKDTLMISRTPEVTCVVVDVSHEDPEVKFNWYVDGVEVHNAKTKPREEQYNSTYRVVSVLTVLHQDWLNGKEYKCKVSNKALPAPIEKTISKAKGQPREPQVYTLPPSREEMTKNQVSLTCLVKGFYPSDIAVEWESNGQPENNYKTTPPVLDSDGSFFLYSKLTVDKSRWQQGNVFSCSVMHEALHNHYTQKSLSLSPGGGSGGSEVQLLESGGGLVQPGGSLRLSCAASGFTFSNYAMSWFRQPPETGLKWVSSIDASGGDTYYADSVKGRFTISRDNSKNTLYLQMNSLRAEDTAVYYCAKEGSHGTDDSHYDVDVWGQGTTVTVSS |
| 0.22 | 5.58 | PR007132 (bispecific antibody) light: DIQMTQSPSTLSASVGDRVTVTCRASQSIYIWLAWYQQKPGKAPNLLIYKASSLETGVPSRFSGSGSGTEFTLTISSLQPDDFATYYCQQYYGSSRTFGQGTKVEIKRTVAAPSVFIFPPSDEQLKSGTASVVCLLNNFYPREAKVQWKVDNALQSGNSQESVTEQDSKDSTYSLSSTLTLSKADYEKHKVYACEVTHQGLSSPVTKSFNRGEC heavy: EVQLVESGGGLVQPGGSLRLSCAASGFTFSSYWMSWVRQAPGKGLEWVANIKQEGSEKYYVDSVKGRFTISRDNAKNSLYLQMNSLRAEDTAVYYCARDRAVAGAFDIWGQGTMVTVSSASTKGPSVFPLAPSSKSTSGGTAALGCLVKDYFPEPVTVSWNSGALTSGVHTFPAVLQSSGLYSLSSVVTVPSSSLGTQTYICNVNHKPSNTKVDKKVEPKSCDKTHTCPPCPAPEAAGAPSVFLFPPKPKDTLMISRTPEVTCVVVDVSHEDPEVKFNWYVDGVEVHNAKTKPREEQYNSTYRVVSVLTVLHQDWLNGKEYKCKVSNKALPAPIEKTISKAKGQPREPQVYTLPPSREEMTKNQVSLTCLVKGFYPSDIAVEWESNGQPENNYKTTPPVLDSDGSFFLYSKLTVDKSRWQQGNVFSCSVMHEALHNHYTQKSLSLSPGGGSGGSEVQLVESGGGLVKPGGSLRLSCAASGFTFSDYYMSWIRQAPGKGLEWVSYISSSGSTIYYADSVKGRFTISRDNAKNSLYLQMNSLRAEDTAVYYCARVKPVAGTWDWFDPWGQGTPVTVSS |
| 0.253 | 8.74 | PR007136 (bispecific antibody) light: DIQMTQSPSTLSASVGDRVTVTCRASQSIYIWLAWYQQKPGKAPNLLIYKASSLETGVPSRFSGSGSGTEFTLTISSLQPDDFATYYCQQYYGSSRTFGQGTKVEIKRTVAAPSVFIFPPSDEQLKSGTASVVCLLNNFYPREAKVQWKVDNALQSGNSQESVTEQDSKDSTYSLSSTLTLSKADYEKHKVYACEVTHQGLSSPVTKSFNRGEC heavy: EVQLVESGGGLVQPGGSLRLSCAASGFTFSSYWMSWVRQAPGKGLEWVANIKQEGSEKYYVDSVKGRFTISRDNAKNSLYLQMNSLRAEDTAVYYCARDRAVAGAFDIWGQGTMVTVSSASTKGPSVFPLAPSSKSTSGGTAALGCLVKDYFPEPVTVSWNSGALTSGVHTFPAVLQSSGLYSLSSVVTVPSSSLGTQTYICNVNHKPSNTKVDKKVEPKSCDKTHTCPPCPAPEAAGAPSVFLFPPKPKDTLMISRTPEVTCVVVDVSHEDPEVKFNWYVDGVEVHNAKTKPREEQYNSTYRVVSVLTVLHQDWLNGKEYKCKVSNKALPAPIEKTISKAKGQPREPQVYTLPPSREEMTKNQVSLTCLVKGFYPSDIAVEWESNGQPENNYKTTPPVLDSDGSFFLYSKLTVDKSRWQQGNVFSCSVMHEALHNHYTQKSLSLSPGGGSGGSEVQLVESGGGLVKPGGSLRLSCAASGFTFSDYYMSWFRQAPGKGLEWVSYISSSGSTQDYADSVKGRFTISRDNAKNSLYLQMNSLRAEDTAVYYCAREREPVAGTLDFDNWGQGTPVTVSS |
| 0.216 | 5.06 | PR007133 (bispecific antibody) light: DIQMTQSPSTLSASVGDRVTVTCRASQSIYIWLAWYQQKPGKAPNLLIYKASSLETGVPSRFSGSGSGTEFTLTISSLQPDDFATYYCQQYYGSSRTFGQGTKVEIKRTVAAPSVFIFPPSDEQLKSGTASVVCLLNNFYPREAKVQWKVDNALQSGNSQESVTEQDSKDSTYSLSSTLTLSKADYEKHKVYACEVTHQGLSSPVTKSFNRGEC heavy: EVQLVESGGGLVQPGGSLRLSCAASGFTFSSYWMSWVRQAPGKGLEWVANIKQEGSEKYYVDSVKGRFTISRDNAKNSLYLQMNSLRAEDTAVYYCARDRAVAGAFDIWGQGTMVTVSSASTKGPSVFPLAPSSKSTSGGTAALGCLVKDYFPEPVTVSWNSGALTSGVHTFPAVLQSSGLYSLSSVVTVPSSSLGTQTYICNVNHKPSNTKVDKKVEPKSCDKTHTCPPCPAPEAAGAPSVFLFPPKPKDTLMISRTPEVTCVVVDVSHEDPEVKFNWYVDGVEVHNAKTKPREEQYNSTYRVVSVLTVLHQDWLNGKEYKCKVSNKALPAPIEKTISKAKGQPREPQVYTLPPSREEMTKNQVSLTCLVKGFYPSDIAVEWESNGQPENNYKTTPPVLDSDGSFFLYSKLTVDKSRWQQGNVFSCSVMHEALHNHYTQKSLSLSPGGGSGGSEVQLEESGGGLVKPGGSLRLSCAASGFTFSDYYMSWFRQAPGKGLEWVSYISSSGSITDYADAVKGRFNISRDNAKNSLYLQMNSLRAEDTAVYYCAREREAVAGTLDFDNWGQGTLVTVSS |

Source: patent publication US20230242658A1 (published 2023)
